Columns and labels:
[1] = molecular target: HIV envelope glycoprotein gp120 (HIV); test: ITC, 30 °C, tandemer (180 µM) titrated into gp120 (2.5 µM)
Env of HIV-1RF virus = Env of HIV-1RF virus (HIV-1 RF); test: cell-based or functional assay
[2] = molecular target: HIV-1 subtype C envelope CAP206.8 (HIV-1 subtype C); test: cell-based or functional assay
[3] = molecular target: HIV-1 subtype C envelope Du156.12 (HIV-1 subtype C); test: cell-based or functional assay
[4] = molecular target: HIV-1 subtype A envelope Q168.a2 (HIV-1 subtype A); test: cell-based or functional assay
[5] = molecular target: HIV-1 subtype B envelope CAAN5342.A2 (HIV-1 subtype B); test: cell-based or functional assay
[6] = molecular target: HIV-1 subtype C envelope COT6.15 (HIV-1 subtype C); test: cell-based or functional assay
[7] = molecular target: HIV-1 subtype B envelope JR-FL (HIV-1 subtype B); test: cell-based or functional assay
[8] = molecular target: HIV-1 subtype B envelope PVO.4 (HIV-1 subtype B); test: cell-based or functional assay
[9] = molecular target: HIV-1 subtype C envelope Du179.14 (HIV-1 subtype C); test: cell-based or functional assay
[10] = molecular target: HIV-1 subtype B envelope QH0692.42 (HIV-1 subtype B); test: cell-based or functional assay
[11] = molecular target: HIV-1 subtype A envelope Q23.17 (HIV-1 subtype A); test: cell-based or functional assay
[12] = molecular target: HIV-1 subtype C envelope DU151.2 (HIV-1 subtype C); test: cell-based or functional assay
[13] = molecular target: HIV envelope glycoprotein gp120 (HIV); test: ITC
[14] = molecular target: GRFT-resistant envelope Du156R18 (R); test: cell-based or functional assay
[15] = molecular target: GRFT-resistant envelope Du179 GRFT c17 (R); test: cell-based or functional assay
[16] = molecular target: HIV envelope glycoprotein gp120 (HIV); test: ITC, 30 °C, lectin titrated into gp120

Binder | Kd [1] [nM] | TΔS [1] [kcal/mol] | ΔG [1] [kcal/mol] | ΔH [1] [kcal/mol] | Anti-HIV EC50 (XTT cytopathicity assay, HIV-1RF, CEM-SS cells) (Env of HIV-1RF virus) [nM] | IC50 (pseudovirus neutralization, JC53bl-13 cells) [2] [nM] | IC50 (pseudovirus neutralization, JC53bl-13 cells) [3] [nM] | IC50 (pseudovirus neutralization, JC53bl-13 cells) [4] [nM] | IC50 (pseudovirus neutralization, JC53bl-13 cells) [5] [nM] | IC50 (pseudovirus neutralization, JC53bl-13 cells) [6] [nM] | IC50 (pseudovirus neutralization, JC53bl-13 cells) [7] [nM] | IC50 (pseudovirus neutralization, JC53bl-13 cells) [8] [nM] | IC50 (pseudovirus neutralization, JC53bl-13 cells) [9] [nM] | IC50 (pseudovirus neutralization, JC53bl-13 cells) [10] [nM] | IC50 (pseudovirus neutralization, JC53bl-13 cells) [11] [nM] | IC50 (pseudovirus neutralization, JC53bl-13 cells) [12] [nM] | IC50 (pseudovirus neutralization, JC53bl-13 cells) [14] [nM] | fold reduction in activity between the WT (Du156.12) and R viruses [14] [fold] | IC50 (pseudovirus neutralization, JC53bl-13 cells) [15] [nM] | fold reduction in activity between the WT (Du179.14) and R viruses [15] [fold] | further results
2mGRFT (2mG) (mGRFT-GlyThrGly-mGRFT) (designed binder) SSTHRKFGGSGGSPFSGSGLSSIAVRSGSYLDAIIIDGVHHGGSGGNLSPTFTFGSGEYISNMTIRSGDYIDNISFETNMGRRFGPYGGSGGSANTLSNVKVIQINGSAGDYLDSLDIYYEQYGTGSSTHRKFGGSGGSPFSGSGLSSIAVRSGSYLDAIIIDGVHHGGSGGNLSPTFTFGSGEYISNMTIRSGDYIDNISFETNMGRRFGPYGGSGGSANTLSNVKVIQINGSAGDYLDSLDIYYEQY | 5 | -59.9 | -11.6 | -69.6 | 0.0027 | 0.178 | 0.0182 | 1.55 | 5.27 | 1.46 | 2.09 | 0.301 | 0.158 | 0.202 | 7.26 | 0.694 | 27.1 | 1490 | 36 | 228 | enthalpy/entropy compensation (ΔH/ΔS) ratio [13]: 1.16
monomeric griffithsin mGRFT (1GS-S, PDB ID 3LL2) (designed binder, also called IGS-S; GRFT monomer) SSTHRKFGGSGGSPFSGSGLSSIAVRSGSYLDAIIIDGVHHGGSGGNLSPTFTFGSGEYISNMTIRSGDYIDNISFETNMGRRFGPYGGSGGSANTLSNVKVIQINGSAGDYLDSLDIYYEQY | – | – | – | – | 119 | – | – | – | – | – | – | – | – | – | – | – | – | – | – | – | Kd [16]: 112 nM; TΔS [16]: -26 kcal/mol; ΔG [16]: -9.47 kcal/mol; ΔH [16]: -35.5 kcal/mol
3mGRFT (3mG) (mGRFT-GlyThrGly-mGRFT-GlyThrGly-mGRFT) (designed binder) SSTHRKFGGSGGSPFSGSGLSSIAVRSGSYLDAIIIDGVHHGGSGGNLSPTFTFGSGEYISNMTIRSGDYIDNISFETNMGRRFGPYGGSGGSANTLSNVKVIQINGSAGDYLDSLDIYYEQYGTGSSTHRKFGGSGGSPFSGSGLSSIAVRSGSYLDAIIIDGVHHGGSGGNLSPTFTFGSGEYISNMTIRSGDYIDNISFETNMGRRFGPYGGSGGSANTLSNVKVIQINGSAGDYLDSLDIYYEQYGTGSSTHRKFGGSGGSPFSGSGLSSIAVRSGSYLDAIIIDGVHHGGSGGNLSPTFTFGSGEYISNMTIRSGDYIDNISFETNMGRRFGPYGGSGGSANTLSNVKVIQINGSAGDYLDSLDIYYEQY | 3 | -62.7 | -11.8 | -74.4 | 0.001 | 0.181 | 0.0794 | 0.331 | 0.326 | 0.412 | 0.325 | 0.27 | 0.124 | 0.223 | 0.462 | 0.308 | 1.11 | 14 | 3.86 | 31 | enthalpy/entropy compensation (ΔH/ΔS) ratio [13]: 1.19
4mGRFT (4mG) (mGRFT-GlyThrGly-mGRFT-GlyThrGly-mGRFT-GlyThrGly-mGRFT) (designed binder) SSTHRKFGGSGGSPFSGSGLSSIAVRSGSYLDAIIIDGVHHGGSGGNLSPTFTFGSGEYISNMTIRSGDYIDNISFETNMGRRFGPYGGSGGSANTLSNVKVIQINGSAGDYLDSLDIYYEQYGTGSSTHRKFGGSGGSPFSGSGLSSIAVRSGSYLDAIIIDGVHHGGSGGNLSPTFTFGSGEYISNMTIRSGDYIDNISFETNMGRRFGPYGGSGGSANTLSNVKVIQINGSAGDYLDSLDIYYEQYGTGSSTHRKFGGSGGSPFSGSGLSSIAVRSGSYLDAIIIDGVHHGGSGGNLSPTFTFGSGEYISNMTIRSGDYIDNISFETNMGRRFGPYGGSGGSANTLSNVKVIQINGSAGDYLDSLDIYYEQYGTGSSTHRKFGGSGGSPFSGSGLSSIAVRSGSYLDAIIIDGVHHGGSGGNLSPTFTFGSGEYISNMTIRSGDYIDNISFETNMGRRFGPYGGSGGSANTLSNVKVIQINGSAGDYLDSLDIYYEQY | – | – | – | – | 0.0012 | 0.164 | 0.0887 | 0.273 | 0.232 | 0.273 | 0.287 | 0.185 | 0.0934 | 0.17 | 0.276 | 0.3 | 0.688 | 8 | 2.08 | 22 | –
2mGRFT^long (2mG3) (mGRFT-GlyThrGlyGlyThrGlyGlyThrGly-mGRFT) (designed binder, also called 2mGRFT3; 2mrG3) SSTHRKFGGSGGSPFSGSGLSSIAVRSGSYLDAIIIDGVHHGGSGGNLSPTFTFGSGEYISNMTIRSGDYIDNISFETNMGRRFGPYGGSGGSANTLSNVKVIQINGSAGDYLDSLDIYYEQYGTGGTGGTGSSTHRKFGGSGGSPFSGSGLSSIAVRSGSYLDAIIIDGVHHGGSGGNLSPTFTFGSGEYISNMTIRSGDYIDNISFETNMGRRFGPYGGSGGSANTLSNVKVIQINGSAGDYLDSLDIYYEQY | 3 | -35.4 | -11.8 | -47.2 | 0.0026 | 0.696 | 0.0616 | 5.28 | 16.9 | 2.52 | 5.77 | 0.558 | 0.144 | 0.513 | 7.16 | 1.7 | 26 | 422 | 34.4 | 239 | enthalpy/entropy compensation (ΔH/ΔS) ratio [13]: 1.33
